# Data taken from the supplement of paper PMC9170038.
# System: MS2 coat protein
# Assay: apparent KD of MS2 coat protein; designed switch direction (-1 OFF switch, 1 ON switch): 1; higher = weaker reporter binding
# Summary of the method: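 Designed RNA switches were transcribed on Illumina chips by stalled E. coli RNA polymerase and titrated with SNAP-549-labelled MS2 coat protein from 0.7 or 1.5 nM, doubling to 3 µM. Step length ran from 0.8–1.5 h at the lowest concentration to 10–20 min at the highest. The apparent KD is the median over clusters for each design, from curve-fitted normalised cluster fluorescence.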
# [1] = Eterna round: R95, input ligand: FMN 200 uM
# [2] = Eterna round: R95, input ligand: microRNA oligo, concentration not stated
# [3] = Eterna round: R95, input ligand: none
# [4] = input ligand: microRNA oligo, concentration not stated
Sequence,apparent KD of MS2 coat protein [1],apparent KD of MS2 coat protein [2],apparent KD of MS2 coat protein [3],apparent KD of MS2 coat protein (input ligand: FMN 200 uM),apparent KD of MS2 coat protein [4],apparent KD of MS2 coat protein (input ligand: none)
AGUCCAGCCUGAGCUGGACAAAAGCAUGUACAUGAGGAUCACCCAUGUCGUGUACAAGCUUUUUGCUCGUCUUAAAA [Zipper 46 - 5] (puzzle: Sensor for hsa-mir-208a),376 nM,12.4 nM,334 nM,–,–,–
CGUCCAGCCUGAGCUGGACAAAAGCAUGUACAUGAGGAUCACCCAUGUUCAUGUACAAGCUUUUUGCUCGUCUUACU [salish99_208a_r3_092x] (puzzle: Sensor for hsa-mir-208a),590 nM,15.7 nM,793 nM,–,–,–
"AUAAACAGGCUAGGAUAUCCGGAAACUACAGGGCACGACCCUGUGGACAUGAGGAUCACCCAUGUGGAGAAGGAGCCACAUGAA [Edlatibi] (Eterna round: R96, puzzle: Same State NG 2)",–,–,–,15.1 nM,108 nM,152 nM
"UUAUCUUUCCGAGGAUAUCCAUAUAAUUUACAUGAGGAUCACCCAUGUUAUUGGGAGUUUUUUUAGGAGAAGGCGGUUGUAGAU [JR_SSNG2_Sub051] (Eterna round: R96, puzzle: Same State NG 2)",–,–,–,85.1 nM,61.4 nM,71.1 nM
"UGUUGUAUUACAGGAUAUCUAUAAUUUUUAUUUAGAGAAGGGUAUUCACAUGAGGAUCACCCAUGUAUAUACGAGGAAGUUGUG [JMF's solution 10] (Eterna round: R96, puzzle: Same State NG 1)",–,–,–,–,31.1 nM,–
UUUAUACAUGAGGAUCACCCAUGUCAACGUAGUCGAGGAUAUGGGCAGCCGUGAGGCGUACUAGAAGGCGAAGAGG [JL-ss1-3.08 ViennaUCT mod] (puzzle: Same State 1),49.7 nM,38.8 nM,118 nM,–,–,–
AUCCUACAUGAGGAUCACCCAUGUGACGCCUCAAUAGGAUAUGCGUGUGCCUUGGCGCAUGCAGAAGGAUUGAAGC [JL Aveso mod 1] (puzzle: Same State 1),–,295 nM,–,–,–,–
UCAAGCGCACAUGAGGAUCACCCAUGUACCGAGAGUCGUCGUCGGAGAAUGAUGCAUGCUGCUGCUAUUCCACAUUA [Default title] (puzzle: Sensor for hsa-mir-208a version 2),89.5 nM,66.8 nM,85.3 nM,–,–,–
AAGGUGCAGGUACAGGAUAUGUUGCUCGUAACAUGAGGAUCACCCAUGUACCUAUGAGAUUAAAUGCAGAAGGGUGCACACCAAA [Mat - Same State 2 - Mod of UCT - D91] (puzzle: Same State 2),73 nM,484 nM,302 nM,–,–,–
"GGAUCGGAGGCAGGAUAUGGGCUCAGAACAUGAGGAUCACCCAUGUAAAACGGCGCAAUGCGCCACCAGAAGGGCCUCCAGUCG [Esussoed] (Eterna round: R96, puzzle: Same State NG 2)",–,–,–,13.2 nM,25.7 nM,44.1 nM
"AAACACAUGAGGAUCACCCAUGUAGCACCAUUGAGGCGCACAUAGGAUAUCCGGUCCAAAAGACCGGAGAAGGGUGAAAGAAAA [Veandi] (Eterna round: R96, puzzle: Same State NG 3)",–,–,–,59.7 nM,371 nM,328 nM
UGGUAACAUGAGGAUCACCCAUGUCAAAUGAAUCGAGGAUAUGGGAAUUAAUAAUAUAAACUAGAAGGCGAAUUUG [Altered State 1-6 - Jieux - Same State 1] (puzzle: Same State 1),85.6 nM,123 nM,52.7 nM,–,–,–
"CACGUCUCGGUAGGAUAUGAGGUGCCAUAGGGAACAGCCUAUGGACAUGAGGAUCACCCAUGUCCUCAGAAGGGCCGGACGUGA [Leonis] (Eterna round: R96, puzzle: Same State NG 2)",–,–,–,18.1 nM,48.9 nM,68.2 nM
